Legend:
Assay in all cases: EMSA
AaNPR1 = target: T1, AaNPR1 (Artemisia annua, UniProt A0A481P8F5 1-569)
T1 sequence: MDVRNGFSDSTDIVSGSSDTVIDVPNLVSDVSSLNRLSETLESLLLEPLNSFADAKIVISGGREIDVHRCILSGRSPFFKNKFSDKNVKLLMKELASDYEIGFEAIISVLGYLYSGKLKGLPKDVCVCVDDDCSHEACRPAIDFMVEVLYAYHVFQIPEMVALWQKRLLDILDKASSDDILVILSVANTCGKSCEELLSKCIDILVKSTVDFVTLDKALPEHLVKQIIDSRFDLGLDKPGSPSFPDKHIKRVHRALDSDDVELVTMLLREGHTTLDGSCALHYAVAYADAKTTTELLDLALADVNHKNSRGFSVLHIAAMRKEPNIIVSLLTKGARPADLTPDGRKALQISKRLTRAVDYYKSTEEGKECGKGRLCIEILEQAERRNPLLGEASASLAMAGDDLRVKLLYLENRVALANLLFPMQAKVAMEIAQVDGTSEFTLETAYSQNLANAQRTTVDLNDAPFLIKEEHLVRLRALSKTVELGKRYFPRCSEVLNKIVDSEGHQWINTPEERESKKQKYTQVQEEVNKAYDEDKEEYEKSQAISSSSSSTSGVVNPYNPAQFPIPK

AaTGA6;AaNPR1 = target: T2, AaTGA6;AaNPR1 (Artemisia annua;Artemisia annua, UniProt A0A481P8G0;A0A481P8F5 1-436;1-569, |)
T2 sequence 1: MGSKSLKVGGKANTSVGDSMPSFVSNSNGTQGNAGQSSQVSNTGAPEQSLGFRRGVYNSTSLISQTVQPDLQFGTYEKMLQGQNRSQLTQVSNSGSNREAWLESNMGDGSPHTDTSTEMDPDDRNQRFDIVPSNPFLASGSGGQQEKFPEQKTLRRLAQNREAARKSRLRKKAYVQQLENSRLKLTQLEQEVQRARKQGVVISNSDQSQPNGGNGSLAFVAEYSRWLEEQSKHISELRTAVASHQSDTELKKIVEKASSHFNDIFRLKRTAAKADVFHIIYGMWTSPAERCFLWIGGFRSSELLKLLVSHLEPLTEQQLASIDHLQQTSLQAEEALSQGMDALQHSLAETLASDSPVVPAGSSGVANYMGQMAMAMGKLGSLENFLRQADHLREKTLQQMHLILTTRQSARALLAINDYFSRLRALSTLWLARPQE
T2 sequence 2: T1 sequence

AaTGA6 = target: T3, AaTGA6 (Artemisia annua, UniProt A0A481P8G0 1-436)
T3 sequence: T2 sequence 1

B1: AaERF1 promoter TGACG box probe (40 bp) (dsDNA)
DNA 1: AATGATGCGTCAAGCCATGACGTCACCCCTAATCCTAAAT
DNA 2: ATTTAGGATTAGGGGTGACGTCATGGCTTGACGCATCATT
- binding result (AaNPR1): no binding
- binding result (AaTGA6;AaNPR1): binds
- binding result (AaTGA6): binds

— publication PMC6685660
